The values that follow come from patent publication US20260207704A1, “STAPLED PEPTIDES AND METHODS THEREOF” (priority 2022, published 2026).

*1 amine or outer side, *2 acyl side, *3 side chain or, on linkers, in order; H or OH if unused. Bridges are numbered along the chain shown (N, C = ends). Primed or numbered codes have the meaning given here. [ ]: non-standard residue; d: D form. PyrS2″ = (S)-3-amino-1-((pent-4-en-1-yloxy)carbonyl)pyrrolidine-3-carboxylic acid (olefin stapling residue), C=CCCCOC(=O)N1CC[C@@](N[*:1])(C(=O)[*:2])C1; PyrS2 = (S)-3-amino-1-((pent-4-en-1-yloxy)carbonyl)pyrrolidine-3-carboxylic acid, olefin staple residue, C=CCCCOC(=O)N1CC[C@@](N[*:1])(C(=O)[*:2])C1; PyrS2(5) = (S)-3-amino-1-((pent-4-en-1-yloxy)carbonyl)pyrrolidine-3-carboxylic acid, C=CCCCOC(=O)N1CC[C@@](N[*:1])(C(=O)[*:2])C1; B5″ = 2-amino-2-(pent-4-en-1-yl)hept-6-enoic acid (bis-olefin stapling residue), C=CCCCC(CCCC=C)(N[*:1])C(=O)[*:2]; 2F3MeF″ = aromatic residue, Cc1cccc(C[C@H](N[*:1])C(=O)[*:2])c1F; Phe(3-COOH) = N[C@@H](Cc1cccc(C(=O)O)c1)C(=O)O; 2F3MeF = Cc1cccc(C[C@H](N[*:1])C(=O)[*:2])c1F; Bta = N[C@@H](Cc1csc2ccccc12)C(=O)O; Lys(iPr) = CC(C)NCCCC[C@H](N)C(=O)O; αAllylPro = C=CC[C@@]1(C(=O)O)CCCN1; tBuAla = CC(C)(C)C[C@H](N)C(=O)O; Cha = N[C@@H](CC1CCCCC1)C(=O)O; BztA″ = aromatic residue; Nle = CCCC[C@H](N)C(=O)O; GlnR = not defined here; B5 = not defined here Where only a bound is given, the exact number is not on record here.

For experiment [1], the system named is COLO320DM cells. Briefly: COLO320DM proliferation assay. In kind it is cell-based, human. The following applies: read-out: COLO320DM Proliferation Abs IC50. On the procedure:
Various technologies can be utilized to assess technologies of the present disclosure. For example, in some embodiments, solubility, LogD, interactions with targets, etc. of various agents such as stapled peptides were assessed using technologies described in WO 2022/261257 (e.g., those in its Examples). In some embodiments, solubility, shake flask LogD, and binding to beta-catenin were assessed. In some embodiments, an assay for assessing interactions, e.g., with beta-catenin, was fluorescence polarization as described in WO 2022/261257. In some embodiments, an assay was Nano-BRET target engagement assay that assessed beta-catenin/TCF4 engagement as described in WO 2022/261257. In some embodiments, an assay was a reporter assay as reported in Example 4 of WO 2022/261257. In some embodiments, an assay was a COLO320DM proliferation assay as reported in Example 4 of WO 2022/261257.
Among other things, provided technologies can inhibit proliferation of various cells including various cancer cells. In some embodiments, provided technologies modulate WNT specific transcription. In some embodiments, provided technologies induce cell cycle arrest. In some embodiments, provided technologies induce G1 cell cycle arrest. In some embodiments, provided technologies increased proportion of cells in G1 phase of cell cycle. As confirmed in FIG. 3, provided technologies can inhibit proliferation of COLO320DM, which is a colorectal cell line comprising various mutations such as APC, TP53, etc., modulate WNT specific transcription such as of AXIN2 and CXCL12, and induce G1 cell cycle arrest. In some embodiments, it was confirmed that provided technologies can reduce proportion of cells in S phase of cell cycle.

Experiment [2] deals with beta-catenin (human). The experiment can be described thus: cell-based or functional assay.
Chain of beta-catenin (human) (B6V8E6 146-665 limits assumed): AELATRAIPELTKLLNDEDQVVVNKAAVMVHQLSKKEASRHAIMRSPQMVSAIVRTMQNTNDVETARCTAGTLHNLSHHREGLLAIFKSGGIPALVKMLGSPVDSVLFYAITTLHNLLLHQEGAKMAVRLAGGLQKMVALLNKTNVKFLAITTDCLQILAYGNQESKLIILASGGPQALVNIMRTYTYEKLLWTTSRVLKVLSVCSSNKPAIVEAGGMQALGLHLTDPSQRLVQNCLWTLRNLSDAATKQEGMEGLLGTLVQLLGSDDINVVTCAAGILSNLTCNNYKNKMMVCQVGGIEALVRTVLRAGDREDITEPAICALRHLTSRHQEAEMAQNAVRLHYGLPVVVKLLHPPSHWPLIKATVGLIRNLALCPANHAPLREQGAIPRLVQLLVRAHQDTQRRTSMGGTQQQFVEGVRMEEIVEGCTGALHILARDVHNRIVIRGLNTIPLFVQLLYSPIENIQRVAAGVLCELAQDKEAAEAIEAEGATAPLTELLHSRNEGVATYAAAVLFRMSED
Experiment [3] addresses beta-catenin (human). The experiment can be described thus: fluorescence polarization; bin >200 nM. (In general: Fluorescence polarisation rises when a labelled molecule tumbles more slowly, as on binding a larger partner.)

`CC(=O)N1CCC[C@]12CC=CCCCC1(CCCC=CCCCOC(=O)N3CC[C@@]4(C3)NC(=O)[C@H](CCCCNC(=O)CC[C@@H](C(=O)N[C@@H](C)C(N)=O)NC(=O)[C@H](Cc3csc5ccccc35)NC(=O)[C@H](Cc3ccsc3)NC4=O)NC(=O)[C@H](Cc3ccccc3)NC(=O)[C@H](C)NC(=O)[C@H](Cc3ccccc3)NC(=O)[C@H](Cc3cccc(C(=O)O)c3)NC(=O)[C@H](CC(=O)O)NC1=O)NC(=O)[C@H](CC(C)(C)C)NC(=O)[C@H](CC(=O)O)NC2=O` (relative stereo) [I-386, Ac-PL3-Asp-Npg-B5-Asp-3COOHF-Phe-Ala-Phe-Lys*3-PyrS2-3Thi-BztA-GlnR*3-Ala-NH2]: the IC50 in experiment [1] is greater than 20 µM.
Take `CC(=O)N1CCC[C@]12CC=CCCCC1(CCCC=CCCCOC(=O)N3CC[C@@]4(C3)NC(=O)[C@H](CCCCNC(=O)CC[C@@H](C(=O)N[C@@H](C)C(N)=O)NC(=O)[C@H](Cc3csc5ccccc35)NC(=O)[C@H](Cc3ccsc3)NC4=O)NC(=O)[C@H](Cc3ccccc3)NC(=O)[C@H](C)NC(=O)C(C)(C)NC(=O)[C@H](Cc3cccc(C(=O)O)c3)NC(=O)[C@H](CC(=O)O)NC1=O)NC(=O)[C@H](CCCN1CCOCC1)NC(=O)[C@H](CC(=O)O)NC2=O` (relative stereo) [I-313, Ac-PL3-Asp-MorphNva-B5-Asp-3COOHF-Aib-Ala-Phe-Lys*3-PyrS2-3Thi-BztA-GlnR*3-Ala-NH2]: in experiment [1], the IC50 was greater than 20 µM.
Take `CC(=O)N1CCC[C@]12CC=CCCCC1(CCCC=CCCCOC(=O)N3CC[C@@]4(C3)NC(=O)[C@H](CCCCNC(=O)CC[C@@H](C(=O)N[C@@H](C)C(N)=O)NC(=O)[C@H](Cc3csc5ccccc35)NC(=O)[C@H](Cc3ccncc3)NC4=O)NC(=O)[C@H](Cc3ccccc3)NC(=O)[C@H](C)NC(=O)C(C)(C)NC(=O)[C@H](Cc3cccc(C(=O)O)c3)NC(=O)[C@H](CC(=O)O)NC1=O)NC(=O)[C@H](CC(C)(C)C)NC(=O)[C@H](CC(=O)O)NC2=O` (relative stereo) [I-301, Ac-PL3-Asp-Npg-B5-Asp-3COOHF-Aib-Ala-Phe-Lys*3-PyrS2-4PyrA-BztA-GlnR*3-Ala-NH2]: in experiment [1], the IC50 is greater than 20 µM.
As for `CC(=O)N1CCC[C@]12CC=CCCCC1(CCCC=CCCCOC(=O)N3CC[C@@]4(C3)NC(=O)[C@H](CCCCNC(=O)CC[C@@H](C(=O)N[C@@H](C)C(N)=O)NC(=O)[C@H](Cc3csc5ccccc35)NC(=O)[C@H](Cc3ccccc3C)NC4=O)NC(=O)[C@H](Cc3ccccc3)NC(=O)[C@H](C)NC(=O)C(C)(C)NC(=O)[C@H](Cc3cccc(C(=O)O)c3)NC(=O)[C@H](CC(=O)O)NC1=O)NC(=O)[C@H](CC(C)(C)C)NC(=O)[C@H](CC(=O)O)NC2=O` (relative stereo) [I-294, Ac-PL3-Asp-Npg-B5-Asp-3COOHF-Aib-Ala-Phe-Lys*3-PyrS2-2MeF-BztA-GlnR*3-Ala-NH2], the IC50 in experiment [1] is no more than 10 µM.
On to `CC(=O)N1CCC[C@]12CC=CCCCC1(CCCC=CCCCOC(=O)N3CC[C@@]4(C3)NC(=O)[C@H](CCCCNC(=O)CC[C@@H](C(=O)N[C@@H](C)C(N)=O)NC(=O)[C@H](Cc3csc5ccccc35)NC(=O)[C@H](Cc3ccsc3)NC4=O)NC(=O)[C@H](Cc3ccccc3)NC(=O)[C@H](C)NC(=O)C(C)(C)NC(=O)[C@H](Cc3cccc(C(=O)O)c3)NC(=O)[C@H](CC(=O)O)NC1=O)NC(=O)[C@H](C)NC(=O)[C@H](CC(=O)O)NC2=O` (relative stereo) [I-304, Ac-PL3-Asp-Ala-B5-Asp-3COOHF-Aib-Ala-Phe-Lys*3-PyrS2-3Thi-BztA-GlnR*3-Ala-NH2], for which, in experiment [1], the IC50 is no more than 10 µM.
In the case of `CC(=O)N1CCC[C@]12CC=CCCCC1(CCCC=CCCCOC(=O)N3CC[C@@]4(C3)NC(=O)[C@H](CCCCNC(=O)CC[C@@H](C(=O)N[C@@H](C)C(N)=O)NC(=O)[C@H](Cc3csc5ccccc35)NC(=O)[C@H](Cc3ccccn3)NC4=O)NC(=O)[C@H](Cc3ccccc3)NC(=O)[C@H](C)NC(=O)C(C)(C)NC(=O)[C@H](Cc3cccc(C(=O)O)c3)NC(=O)[C@H](CC(=O)O)NC1=O)NC(=O)[C@H](CC(C)(C)C)NC(=O)[C@H](CC(=O)O)NC2=O` (relative stereo) [I-299, Ac-PL3-Asp-Npg-B5-Asp-3COOHF-Aib-Ala-Phe-Lys*3-PyrS2-2PyrA-BztA-GlnR*3-Ala-NH2], the IC50 in experiment [1] is 10 to 20 µM.
Regarding `CCCC[C@@H]1NC(=O)[C@H](CC(=O)O)NC(=O)[C@]2(CC=CCCCC3(CCCC=CCCCOC(=O)N4CC[C@@]5(C4)NC(=O)[C@H](CCCCNC(=O)CC[C@@H](C(=O)N[C@@H](C)C(N)=O)NC(=O)[C@H](Cc4csc6ccccc46)NC(=O)[C@H](Cc4ccsc4)NC5=O)NC(=O)[C@H](Cc4ccccc4)NC(=O)[C@H](C)NC(=O)C(C)(C)NC(=O)[C@H](Cc4cccc(C(=O)O)c4)NC(=O)[C@H](CC(=O)O)NC3=O)NC1=O)CCCN2C(C)=O` (relative stereo) [I-245, Ac-PL3-Asp-nLeu-B5-Asp-3COOHF-Aib-Ala-Phe-Lys*3-PyrS2-3Thi-BztA-GlnR*3-Ala-NH2], the IC50 in experiment [1] is no more than 10 µM.
For `CC(=O)N1CCC[C@@]1(C)C(=O)N[C@@H](CC(=O)O)C(=O)N[C@H](C(=O)N[C@]1(C)CCCCCCCCOC(=O)N2CC[C@@]3(C2)NC(=O)[C@H](CCCCNC(=O)CC[C@@H](C(=O)N[C@@H](C)C(N)=O)NC(=O)[C@H](Cc2csc4ccccc24)NC(=O)[C@H](Cc2ccsc2)NC3=O)NC(=O)[C@H](Cc2ccccc2)NC(=O)[C@H](C)NC(=O)C(C)(C)NC(=O)[C@H](Cc2cccc(C(=O)O)c2)NC(=O)[C@H](CC(=O)O)NC1=O)C(C)C` (relative stereo) [I-237, Ac-MePro-Asp-Val-R5-Asp-3COOHF-Aib-Ala-Phe-Lys*3-PyrS2-3Thi-BztA-GlnR*3-Ala-NH2], the IC50 in experiment [1] was greater than 20 µM.
Still for that read-out and setting: the figure for `CC(=O)N1CCC[C@]12CC=CCCCC1(CCCC=CCCCOC(=O)N3CC[C@@]4(C3)NC(=O)[C@H](CCCCNC(=O)CC[C@@H](C(=O)N[C@@H](C)C(N)=O)NC(=O)[C@H](Cc3csc5ccccc35)NC(=O)[C@H](Cc3ccsc3)NC4=O)NC(=O)[C@H](Cc3ccccc3)NC(=O)[C@H](C)NC(=O)C(C)(C)NC(=O)[C@H](Cc3cccc(C(=O)O)c3)NC(=O)[C@H](CC(=O)O)NC1=O)NC(=O)[C@H](C1CCCCC1)NC(=O)[C@H](CC(=O)O)NC2=O` (single isomer, unassigned) [I-253, Ac-PL3-Asp-Chg-B5-Asp-3COOHF-Aib-Ala-Phe-Lys*3-PyrS2-3Thi-BztA-GlnR*3-Ala-NH2] is no more than 10 µM.

B1: I-131 (peptide)
peptide: Ac-[αAllylPro]D[tBuAla][B5]D[Phe(3-COOH)][GlnR]AFL[PyrS2″][2F3MeF″][BztA″][GlnR](29N2spiroundecane)A-NH2
modifications: reading uncertain; also: staple links not given here, printed as Ac-PL3-Asp-Npg-B5-Asp-3COOHF-GlnR-Ala-Phe-Leu-PyrS2-2F3MeF-BztA-[29N2spiroundecane]GlnR-Ala-NH2
Molecule B1 registered a NanoBRET Abs IC50 in experiment [2] greater than 10 µM. The IC50 in experiment [3] is less than 0.75 µM.

B2: I-142 (peptide)
peptide: Ac-[αAllylPro]N[tBuAla][B5]D[Phe(3-COOH)]AAFK[PyrS2(5)][2F3MeF″][BztA″][GlnR]LS-NH2
modifications: bridge 10-14; not fully specified (bridges); printed as Ac-PL3-Asn-Npg-B5-Asp-3COOHF-Ala-Ala-Phe-Lys*3-PyrS2-2F3MeF-BztA-GlnR*3-Leu-Ser-NH2; reading uncertain; also: Lys10 and GlnR14 marked *3
Consider B2, for which the NanoBRET Abs IC50 (bin >3.0 uM) in experiment [2] is less than 10 µM. In addition, the IC50 in experiment [3] is less than 0.75 µM.

B3: I-134 (peptide)
peptide: Ac-[αAllylPro]D[tBuAla][B5]D[Phe(3-COOH)][GlnR]AFL[PyrS2][2F3MeF][Bta][GlnR](29N2spiroundecane)A-NH2
modifications: staple 1-4, 4-11 (inferred); not fully specified; printed as Ac-PL3-Asp-Npg-B5-Asp-3COOHF-GlnR-Ala-Phe-Leu-PyrS2-2F3MeF-BztA-[29N2spiroundecane]GlnR-Ala-NH2; reading uncertain; also: staple C=C reduced to CH2-CH2
In turn, B3 yielded a NanoBRET Abs IC50 in experiment [2] greater than 10 µM. The IC50 in experiment [3] was less than 0.75 µM.

B4: I-143 (peptide)
peptide: Ac-[αAllylPro]N[tBuAla][B5]D[Phe(3-COOH)][Nle]AFK[PyrS2″][2F3MeF″][BztA″][GlnR]LS-NH2
modifications: bridge 10-14; not fully specified (bridges); printed as Ac-PL3-Asn-Npg-B5-Asp-3COOHF-nLeu-Ala-Phe-Lys*3-PyrS2-2F3MeF-BztA-GlnR*3-Leu-Ser-NH2; reading uncertain; also: Lys10 and GlnR14 marked *3
B4 yielded a NanoBRET Abs IC50 in experiment [2] greater than 10 µM. The molecule further gave an IC50 in experiment [3] of less than 0.75 µM.

B5: I-149 (peptide)
peptide: Ac-[αAllylPro]N[Cha][B5″]DQ[Lys(iPr)]AF[GlnR][PyrS2″]F[Bta]K-NH2
modifications: bridge 10-14; reading uncertain; also: PL3-B5 and PyrS2 links not placed, printed as Ac-PL3-Asn-Cha-B5-Asp-Gln-iPrLys-Ala-Phe-GlnR*3-PyrS2-Phe-BztA-Lys*3-NH2
Consider B5, for which the NanoBRET Abs IC50 in experiment [2] is greater than 10 µM. The molecule further returned an IC50 in experiment [3] of less than 0.75 µM.
